According to paper PMC4070910, “Cathepsin S Signals via PAR2 and Generates a Novel Tethered Ligand Receptor Agonist” (PLoS ONE, 2014):
Read-outs that look alike come from different tables or passages of the source.

Key:
[1] = tested on: PAR2; conditions: in vitro, cited from earlier work
Text: PAR2 signaling has been implicated in the development of inflammatory and bowel diseases, asthma, itch and pain. The receptor is expressed on many types of cells including keratinocytes, sensory neurons, fibroblasts, endothelial cells, and inflammatory cells, [3]. Consistent with this broad expression, PAR2 is involved in numerous physiologic and pathophysiologic processes in response to both endogenous and exogenous proteases.

[2] = tested on: human PAR2; experiment: Fura-2 calcium imaging in HeLa cells transfected with PAR2 cDNA; assay type: cell-based; conditions: PAR2-transfected HeLa; KVDGTS 100 µM, cathepsin S 2 µM, papain 2 µM, trypsin 10 nM; second agent after up to 60 minutes; room temperature
Experimental: Human PAR2 cDNA was cloned as an Xho I-Hind III fragment (1206 bp) into pcDNA3.1(−). 10 µg of DNA were diluted into 0.5 ml of DMEM and mixed with 0.5 ml of DMEM containing 10 µl of Lipofectamine 2000 transfection reagent and incubated at room temperature for 20 minutes. HeLa cells were grown to confluence, trypsinized and 1×10^6 cells were pelleted in a 15 ml tube by centrifugation at 1000 rpm for 5 minutes. The DMEM-Lipofectamine 2000-DNA mixture (1 ml) was added to the cell pellet, resuspended gently and incubated at room temperature for 20 minutes. Four ml of complete DMEM with 10% FBS were added to the tube, mixed by inverting the tube several times, plated into a 96-well glass bottom plate at 20,000 cells/well, and placed in a 37°C CO2 incubator. HeLa cells transfected with vector alone or salmon sperm DNA (shown in the figures) were plated as a control. The medium was aspirated two days after transfection. Fura-2 was used as a ratiometric calcium-sensitive indicator as follows. 100 µl of complete DMEM containing 2 µM of Fura-2 were added to each well and left at room temperature in the dark for 1 hr. Following loading with Fura-2, the medium was aspirated and replaced with 90 µl of HEPES-buffered saline (20 mM HEPES, 115 mM NaCl, 5.4 mM KCl, 2 mM CaCl2, 0.8 mM MgCl2, 13.8 mM glucose, pH 7.4).
Imaging was performed using a Zeiss Axiovert 200 M microscope platform equipped with a flipping filter wheel for ratiometric imaging. Axiovision software, version 4.6 was used for image analysis of the cells which were excited at 340 nm and 380 nm. Ten µl of peptide agonist were added at 20 seconds after the start of the excitation procedure. Images were taken every 5 seconds, including at zero time, during a 3-minute period or longer if required. The software later analyzed all images taken during each excitation period. Typically, ratiometric changes were measured in 10–20 cells in each image. An average of the fluorescence of the cells in each image was calculated and plotted against time in seconds.
HeLa cells transfected with PAR2 cDNA were subjected to ratiometric imaging as described above with PAR2 peptides, SLIGRL, KVDGTS, and SLIGKVDGTS in addition to the reverse peptides LRGILS and STGDVK at concentrations from 1 nM - 1 mM. Each of the concentration-dependent readings was performed in triplicate. Maximum intensities at each of the dilutions were calculated and plotted against concentration using GraphPad/PRISM software version 6.0 (Irvine, CA). Error bars represent +/−SEM.

B1: der p 1: dust mite allergen (protein, UniProt P08176 99-320, looked up)
Peptidase 1: TNACSINGNAPAEIDLRQMRTVTPIRMQGGCGSCWAFSGVAATESAYLAYRNQSLDLAEQELVDCASQHGCHGDTIPRGIEYIQHNGVVQESYYRYVAREQSCRRPNAQRFGISNYCQIYPPNVNKIREALAQTHSAIAVIIGIKDLDAFRHYDGRTIIQRDNGYQPNYHAVNIVGYSNAQGVDYWIVRNSWDTNWGDNGYGYFAANIDLMMIEEYPYVVIL
PAR2 activation (in words) ([1]; dust mite allergen): supporting activation

B2: papain: plant protease (protein, UniProt P00784 134-345, looked up)
Papain: IPEYVDWRQKGAVTPVKNQGSCGSCWAFSAVVTIEGIIKIRTGNLNEYSEQELLDCDRRSYGCNGGYPWSALQLVAQYGIHYRNTYPYEGVQRYCRSREKGPYAAKTDGVRQVQPYNEGALLYSIANQPVSVVLEAAGKDFQLYRGGIFVGPCGNKVDHAVAAVGYGPNYILIKNSWGTGWGENGYIRIKRGTGNSYGVCGLYTSSFYPVKN
PAR2 activation (in words) ([1]; plant proteases): supporting activation | effect as first agent on calcium response to second agent (in words) [2]: failed to induce a calcium response at any time up to 60 minutes
